The values that follow come from patent publication US20020068323A1 (Amgen, published 2002).

Experiment [1] concerns the target T1, murine IL-7Rα (murine, UniProt P16872 21-459).
T1 construct: whole, on cells; Expressed alone on transiently transfected 293 cells; also called murine IL-7Rα alone
T1 sequence (looked up): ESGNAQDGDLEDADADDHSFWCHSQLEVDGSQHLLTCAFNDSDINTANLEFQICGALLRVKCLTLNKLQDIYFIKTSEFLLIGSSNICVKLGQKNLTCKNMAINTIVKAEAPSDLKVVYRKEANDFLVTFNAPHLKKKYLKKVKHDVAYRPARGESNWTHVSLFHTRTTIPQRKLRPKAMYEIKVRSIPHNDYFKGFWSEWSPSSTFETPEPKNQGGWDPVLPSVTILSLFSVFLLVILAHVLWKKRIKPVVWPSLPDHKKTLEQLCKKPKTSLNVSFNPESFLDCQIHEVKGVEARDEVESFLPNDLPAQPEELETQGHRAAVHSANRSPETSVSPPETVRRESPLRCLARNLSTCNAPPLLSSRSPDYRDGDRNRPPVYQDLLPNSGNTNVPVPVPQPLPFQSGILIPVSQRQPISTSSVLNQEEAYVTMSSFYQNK
The experiment can be described thus: affinity labeling, DSS cross-linking, transfected 293 cells, SDS-PAGE. On the procedure:
The binding of TSLP to TSLPR polypeptide in the presence of IL-7Rα was examined in affinity labeling assays. Affinity labeling assays were performed by adding 1-5 nM of ¹²⁵I-labeled TSLP to 5×10⁶ 293 cells transfected with expression constructs for murine IL-7Rα, murine TSLPR polypeptide, murine IL-7Rα and murine TSLPR polypeptide, or human IL-7Rα and murine TSLPR polypeptide. Iodinated TSLP was prepared by adding IODO-GEN (Pierce, Rockford, Ill.) and 2 mCi¹²⁵I to 1 μg of TSLP. A specific activity of approximately 200-300 μCi/μg was obtained by this method. Prior to affinity labeling, 293 cells were transiently transfected using the calcium phosphate method (Eppendorf-5 Prime, Boulder, Colo.). Following a 2 hour incubation with ¹²⁵I-TSLP, cells were cross-linked with 0.1 mg/ml disuccinimidyl suberate (Pierce), lysed in lysis buffer, and the lysates resolved by SDS-PAGE.

In experiment [2] the target is T2, heterodimer of murine IL-7Rα and murine TSLPR polypeptide (murine, UniProt P16872 21-459).
T2 construct: whole, on cells; Both chains co-expressed on transiently transfected 293 cells; also called IL-7Rα/TSLPR polypeptide heterodimer; cells expressing TSLPR polypeptide and IL-7Rα
T2 sequence (P16872 whole entry, looked up): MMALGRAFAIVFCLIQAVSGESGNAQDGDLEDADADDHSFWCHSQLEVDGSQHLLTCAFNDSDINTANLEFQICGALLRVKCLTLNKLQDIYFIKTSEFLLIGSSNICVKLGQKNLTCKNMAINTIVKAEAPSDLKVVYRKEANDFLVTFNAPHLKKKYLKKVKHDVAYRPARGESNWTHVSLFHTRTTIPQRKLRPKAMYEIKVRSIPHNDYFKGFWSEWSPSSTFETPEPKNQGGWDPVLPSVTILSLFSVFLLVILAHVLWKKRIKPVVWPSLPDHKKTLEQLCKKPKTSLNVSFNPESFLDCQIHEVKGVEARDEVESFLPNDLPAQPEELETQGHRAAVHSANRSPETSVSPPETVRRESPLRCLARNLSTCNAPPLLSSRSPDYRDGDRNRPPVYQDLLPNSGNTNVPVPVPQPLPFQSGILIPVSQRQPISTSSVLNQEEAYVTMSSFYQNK
T2 sequence (Q8CII9 whole entry, looked up): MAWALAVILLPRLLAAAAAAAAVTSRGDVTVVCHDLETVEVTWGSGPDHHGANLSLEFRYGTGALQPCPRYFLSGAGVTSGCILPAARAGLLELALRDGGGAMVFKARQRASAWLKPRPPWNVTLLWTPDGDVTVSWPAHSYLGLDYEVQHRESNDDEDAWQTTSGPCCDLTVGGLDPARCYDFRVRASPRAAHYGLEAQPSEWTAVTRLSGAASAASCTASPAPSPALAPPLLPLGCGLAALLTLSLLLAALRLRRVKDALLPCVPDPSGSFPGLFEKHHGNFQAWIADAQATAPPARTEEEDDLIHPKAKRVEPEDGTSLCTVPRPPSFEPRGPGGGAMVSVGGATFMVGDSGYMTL
The experiment can be described thus: displacement binding assay on transfected 293 cells, Scatchard transformation (LIGAND program). How it is done: (§1) The binding of TSLP to 293 cells transfected with murine IL-7Rα and murine TSLPR polypeptide, or murine IL-7Rα alone, was analyzed in a displacement binding assay. Following two washes, 1×10⁶ transfected 293 cells were incubated in a constant amount of ¹²⁵I-labeled TSLP (approximately 20,000 cpm) and varying amounts of unlabeled TSLP. Following a 3 hour incubation, treated cells were separated from the medium by centrifugation in olive oil and N-butylphthalate. Cell-bound radioactivity was measured using a gamma counter.
(§2) Analysis of binding data by Scatchard transformation was performed using the LIGAND computer program (Munson and Rodbard, 1980, Anal. Biochem. 107:220-39). […] Due to the very low binding activity of TSLP for cells expressing […], it was not possible to determine the Kd for these cells. Displacement binding assays were also performed using NAG8/7 cells, which constitutively express TSLP receptors and proliferate in response to TSLP (Friend et al., supra; Levin et al., supra). In these displacement binding assays, 5×10⁶ NAG8/7 cells were incubated in a constant amount of ¹²⁵I-labeled TSLP (approximately 180,000 cpm) and varying amounts of unlabeled TSLP. The remainder of the assay was performed as described herein.

For experiment [3], the target named is T3, TSLP receptors constitutively expressed on NAG8/7 cells.
T3 construct: also called single class of receptors
The experiment can be described thus: displacement binding assay with ^125I-TSLP and unlabeled TSLP on NAG8/7 cells, Scatchard transformation. How it is done: as §1, §2

B1: Thymic stromal lymphopoietin (TSLP) (ligand, UniProt Q9JIE6 20-140, looked up)
chain: YNFSNCNFTSITKIYCNIIFHDLTGDLKGAKFEQIEDCESKPACLLKIEYYTLNPIPGCPSLPDKTFARRTREALNDHCPGYPETERNDGTQEMAQEVQNICLNQTSQILRLWYSFMQSPE
As to B1, the binding result in experiment [1] is listed as “no binding (tested: 1-5 nM of ^125I-labeled TSLP)”. The Kd (usually the free concentration of one partner at which half of the binding sites on the other are occupied at equilibrium, for simple one-to-one binding) was roughly 13 nM in experiment [2] and roughly 2.2 nM in experiment [3].
